Test results taken from patent US6034212, “SH3 kinase domain associated protein, a signalling domain therein, nucleic acids encoding the protein and the domain, and diagnostic and therapeutic uses thereof” (The Rockefeller University, dated 2000).

B1: TrpE-YAP65 fusion protein (other)
chain: MQTQKPTLELLTCEGAYRDNPTALFHQLCGDRPATLLLESADIDSKDDLKSLLLVDSALRITALGDTVTIQALSGNGEALLALLDNALPAGVESEQSPNCRVLRFPPVSPLLDEDARLCSLSVFDAFRLLQNLLNVPKEEREAMFFGGLFSYDLVAGFEDLPQLSAENNCPDFCFYLAETLMVIDHQKKSTRIQASLFAPNEEEKQRLTARLNELRQQLTEAAPPLPVVSVPHMRCECNQSDEEFGGVVRLLQKAIRAGEIFQVVPSRRFSLPCPSPLAAYYVLKKSNPSPYMFFMQDNDFTLFGASPESSLKYDATSRQIEIPASLQLGAVSPGTLTPSGVVTGPGAPSSQHLRQSSFEIPDDVPLPPGWEMAKTPSGQRYFLNHIDQTTTWQDPRKAMLSQMNVTAPTSPPVQQNLMNSASAMNQRISQSAPVKQPPPLAPQSPQGGVMGGSSSNQQQQMRLQQLQMEKERLRLKHQELLRQELALRSQLPTMEQDGGSQNPVSSPGMSQELRTMTTNSSDPFLNSGTYHSRDESTDSGLSMSSYSVPRTPDDFLNSVDEMDTGDSISQSNIPSHQNRFPDYLEAIPGTNVDLGTLEGDGMNIEGEELMPSLQEALSSDILNDMES
modifications: 35S-labeled when used as probe

What was measured:
[1] = target: T1, GST-SH3-Yes fusion protein (Gallus gallus (Chicken), UniProt P09324, 35S-methionine labeled when used as probe); assay: membrane binding assay, radioactively labeled TrpE-YAP65 on blotted GST fusions
Experimental: (§1) FIG. 5. Binding between YAP65 and Yes in vitro. (A) TrpE-YAP65 fusion protein (2,4,5,6,7) or TrpE alone (1,3) were probed on Western blots with ^35S-methionine labeled GST-Yes-SH3 alone (2) or with radioactive GST-Yes-SH3 supplemented with 10 µM of cold GST-Yes-SH3 (4); Lane 5 is as in lane 2 but the incubation was in the presence of SPLAP peptide (200 µM); lanes 6 and 7, the binding was competed with 50 µM and 200 µM of the PLAP peptide, respectively. The arrow indicates partially purified TrpE-YAP65 fusion protein. Lower migrating protein bands represent products of proteolytic degradation. Even if an increased concentration of protease inhibitors and careful purification protocols were used, we always observed limited degradation of the TrpE-YAP65 protein. Equal amounts (8 µg) of TrpE-fusion protein or TrpE protein were loaded into each lane of the SDS-polyacrylamide gel and transferred to nitrocellulose. […]
To perform reciprocal binding and to estimate the relative specificity of YAP65 binding to other proteins that contain SH3 domains, we probed the purified GST fusion proteins of Nck, Crk, Src, Abl and GAP with radioactively labeled Trp-E-YAP65 protein. The same amount of protein was analyzed in a membrane binding assay; TRPE-YAP-65 bound the strongest to Nck and Yes followed by Crk, and Src. […]

GST alone = GST alone (Schistosoma japonicum (Blood fluke), UniProt P08515 = GST, 32P-labelled when used as probe in Example 5); assay: Western ligand blot on TrpE-YAP65
[2] = target: T1, GST-SH3-Yes fusion protein; assay: competition of labeled GST-YES-SH3 binding to blotted TrpE-YAP65 by the scrambled peptide
Experimental: as §1, with “nitrocellulose. (B) Differential binding of ^35S-labeled TrpE-YAP65 fusion protein to various fusion proteins containing SH3 domains. Before the Western transfer, we had loaded equal amounts (1 µg) of purified proteins into each lane of the SDS gel. An SDS-polyacrylamide gel was run in parallel and stained with Coomassie Blue to confirm equal concentrations of the purified proteins.” for “nitrocellulose.”

Binder	binding result [1]	binding result (GST alone)	binding result [2]
B1	binds	no binding	
VQPAQLSIPGPVSPQPKGQSPA [SPLAP peptide]			no binding (tested: 200 µM)
